Test results taken from patent publication US20120316071A1 (published 2012).

Assays:
[1] = biological target: T1, Recombinant Human DLL4 (delta-like protein 4) (human, UniProt Q9NR61 27-529); test: ECL (MSD) 96-well plate assay; plate coated with 15 µg/mL DLL4; Fab 0.004 µM
T1 construct: Bought recombinant protein (R&D Systems Cat#1506-D4/CF); also called rHuman DLL4; Delta-like 4

[2] = biological target: T1, Recombinant Human DLL4 (delta-like …); test: ECL (MSD) 96-well plate assay; plate coated with 30 µg/mL DLL4; Fab 0.02 µM
[3] = biological target: T2, Recombinant Human DLL4 (delta-like protein 4) (human, UniProt Q9NR61 27-524); test: ECL (MSD) binding assay, Fab on immobilized DLL4
T2 construct: also called rHuman DLL4; Delta-like 4

[4] = biological target: T2, Recombinant Human DLL4 (delta-like …); test: ELISA, Fab on plate-coated DLL4

| Binder | Signal/Noise [1] | Signal/Noise [2] | ECL signal [3] | ELISA (Signal-Noise) [4] |
| --- | --- | --- | --- | --- |
| Fab VH1-46_IGHD6-6*01_IGHJ1*01 S104C & L6_IGKJ1*01 (Fab, V domains shown, Fab; The VH was cloned into Plasmid A (CH1, His6 and Flag tags) and the kappa VL into Plasmid C (kappa CL); expressed in E. coli) VH: QVQLVQSGAEVKKPGASVKVSCKASGYTFTSYYMHWVRQAPGQGLEWMGIINPSGGSTSYAQKFQGRVTMTRDTSTSTVYMELSSLRSEDTAVYYCAREEYSSCSAEYFQHWGQGTLVTVSS VL: not shown | 8.4 | 9.9 |  |  |
| Fab VH1-46_IGHD6-6*01_IGHJ1*01 S104R & L6_IGKJ1*01 (Fab, V domains shown, Fab; The VH was cloned into Plasmid A (CH1, His6 and Flag tags) and the kappa VL into Plasmid C (kappa CL); expressed in E. coli) VH: QVQLVQSGAEVKKPGASVKVSCKASGYTFTSYYMHWVRQAPGQGLEWMGIINPSGGSTSYAQKFQGRVTMTRDTSTSTVYMELSSLRSEDTAVYYCAREEYSSRSAEYFQHWGQGTLVTVSS VL: not shown | 28.6 | 23.4 |  |  |
| Fab VH5-51_IGHD5-18*01>3_IGHJ4*01 G100K/G104T G35T & V3-4_IGLJ1*01 (Fab, V domains shown, Fab from E. coli: VH-CH1 from Plasmid A with His6 and Flag tags, VL with lambda CL from Plasmid E; also called KT G35T) VH: EVQLVQSGAEVKKPGESLKISCKGSGYSFTSYWITWVRQMPGKGLEWMGIIYPGDSDTRYSPSFQGQVTISADKSISTAYLQWSSLKASDTAMYYCARRKYSYTYDYFDYWGQGTLVTVSS VL: QTVVTQEPSFSVSPGGTVTLTCGLSSGSVSTSYYPSWYQQTPGQAPRTLIYSTNTRSSGVPDRFSGSILGNKAALTITGAQADDESDYYCVLYMGSGISYVFGTGTKVTVL |  |  | 14500 | 0.07 |
| Fab VH5-51_IGHD5-18*01>3_IGHJ4*01 G100K/G104T G35A & V3-4_IGLJ1*01 (Fab, V domains shown, Fab from E. coli: VH-CH1 from Plasmid A with His6 and Flag tags, VL with lambda CL from Plasmid E; also called KT G35A) VH: EVQLVQSGAEVKKPGESLKISCKGSGYSFTSYWIAWVRQMPGKGLEWMGIIYPGDSDTRYSPSFQGQVTISADKSISTAYLQWSSLKASDTAMYYCARRKYSYTYDYFDYWGQGTLVTVSS VL: QTVVTQEPSFSVSPGGTVTLTCGLSSGSVSTSYYPSWYQQTPGQAPRTLIYSTNTRSSGVPDRFSGSILGNKAALTITGAQADDESDYYCVLYMGSGISYVFGTGTKVTVL |  |  | 19700 | 0.06 |
| Fab VH5-51_IGHD5-18*01>3_IGHJ4*01 G100K/G104T G35V & V3-4_IGLJ1*01 (Fab, V domains shown, Fab from E. coli: VH-CH1 from Plasmid A with His6 and Flag tags, VL with lambda CL from Plasmid E; also called KT G35V) VH: EVQLVQSGAEVKKPGESLKISCKGSGYSFTSYWIVWVRQMPGKGLEWMGIIYPGDSDTRYSPSFQGQVTISADKSISTAYLQWSSLKASDTAMYYCARRKYSYTYDYFDYWGQGTLVTVSS VL: QTVVTQEPSFSVSPGGTVTLTCGLSSGSVSTSYYPSWYQQTPGQAPRTLIYSTNTRSSGVPDRFSGSILGNKAALTITGAQADDESDYYCVLYMGSGISYVFGTGTKVTVL |  |  | 21200 | 0.09 |
| Fab VH5-51_IGHD5-18*01>3_IGHJ4*01 G100K/G104T S28N & V3-4_IGLJ1*01 (Fab, V domains shown, Fab from E. coli: VH-CH1 from Plasmid A with His6 and Flag tags, VL with lambda CL from Plasmid E; also called KT S28N) VH: EVQLVQSGAEVKKPGESLKISCKGSGYNFTSYWIGWVRQMPGKGLEWMGIIYPGDSDTRYSPSFQGQVTISADKSISTAYLQWSSLKASDTAMYYCARRKYSYTYDYFDYWGQGTLVTVSS VL: QTVVTQEPSFSVSPGGTVTLTCGLSSGSVSTSYYPSWYQQTPGQAPRTLIYSTNTRSSGVPDRFSGSILGNKAALTITGAQADDESDYYCVLYMGSGISYVFGTGTKVTVL |  |  | 17300 | 0.09 |
| Fab VH5-51_IGHD5-18*01>3_IGHJ4*01 G100K/G104T S28R & V3-4_IGLJ1*01 (Fab, V domains shown, Fab from E. coli: VH-CH1 from Plasmid A with His6 and Flag tags, VL with lambda CL from Plasmid E; also called KT S28R) VH: EVQLVQSGAEVKKPGESLKISCKGSGYRFTSYWIGWVRQMPGKGLEWMGIIYPGDSDTRYSPSFQGQVTISADKSISTAYLQWSSLKASDTAMYYCARRKYSYTYDYFDYWGQGTLVTVSS VL: QTVVTQEPSFSVSPGGTVTLTCGLSSGSVSTSYYPSWYQQTPGQAPRTLIYSTNTRSSGVPDRFSGSILGNKAALTITGAQADDESDYYCVLYMGSGISYVFGTGTKVTVL |  |  | 51400 | 0.29 |
